The term koff denotes a measure of how fast the partners let go of each other. As a reminder, the Kd is the constant that tells how readily two partners part at equilibrium.

The values that follow come from publication PMC4800418, “A two-component system regulates gene expression of the type IX secretion component proteins via an ECF sigma factor” (Scientific Reports, 2016).

Series [1] concerns the target T1, rSigP (ECF sigma factor) (Porphyromonas gingivalis ATCC 33277) (UniProt B2RHE8).
T1 sequence: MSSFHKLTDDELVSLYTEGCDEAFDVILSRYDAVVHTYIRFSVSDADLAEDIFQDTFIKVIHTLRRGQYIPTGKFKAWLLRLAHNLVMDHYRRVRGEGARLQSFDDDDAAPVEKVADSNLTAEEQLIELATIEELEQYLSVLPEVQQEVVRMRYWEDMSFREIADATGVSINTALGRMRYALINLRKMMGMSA
The series is described as follows: EMSA.

Series [2] deals with T2, recombinant PorX (rPorX) (Porphyromonas gingivalis ATCC 33277, UniProt B2RJJ3 1-518).
T2 chain: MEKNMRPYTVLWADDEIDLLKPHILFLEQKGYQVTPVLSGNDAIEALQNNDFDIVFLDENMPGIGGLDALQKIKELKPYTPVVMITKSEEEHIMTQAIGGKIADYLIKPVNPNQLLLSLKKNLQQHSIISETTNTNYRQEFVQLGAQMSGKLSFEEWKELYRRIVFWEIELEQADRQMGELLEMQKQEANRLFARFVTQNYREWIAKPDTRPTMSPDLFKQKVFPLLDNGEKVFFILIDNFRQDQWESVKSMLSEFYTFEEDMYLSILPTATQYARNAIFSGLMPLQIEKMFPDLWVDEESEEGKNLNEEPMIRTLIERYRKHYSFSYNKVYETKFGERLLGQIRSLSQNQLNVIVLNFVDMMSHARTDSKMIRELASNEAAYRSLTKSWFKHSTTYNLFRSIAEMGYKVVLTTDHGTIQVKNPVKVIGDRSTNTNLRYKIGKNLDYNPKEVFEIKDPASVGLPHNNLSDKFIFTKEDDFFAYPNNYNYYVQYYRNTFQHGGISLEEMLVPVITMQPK
The series is described as follows: SPR. Background: In SPR one partner is held on a chip, and binding of the other changes the refractive index at the surface.

Series [3] has as its target T3, recombinant PorX (rPorX) (Porphyromonas gingivalis ATCC 33277, UniProt B2RJJ3 1-518).
T3 construct: also called PGN_1019; source: E. coli BL21(DE3), purified (Ni-NTA agarose)
T3 sequence: T2 chain
The series is described as follows: SPR. Conditions: both partners purified.

For “ACATTATTTATATATCTGCTTCGCTGCTCTCCCCGAATCCTGCGCTAAGGCAGTTTTCAGAGGAAACGAATGCTTTTATACTTTGCATCTCTATTCTTCGTATTGCTCAATGGGAAAGAA (double strand) [porK 5'-adjacent region probe]”, in series [1], the binding result is “no binding”.
With “ATAATTATTGTTGTGAGGTAGGTTATGCAAATCTACGAACGAGATGTTCTAAATACCGATTCGCGCAAAAATACAATATCTTTGCTGCATAAGGCGTTGA (double strand) [porT promoter probe]”, in series [1], the binding entry was “binds”.
“ATTTCGTTCGTTTTGTTTTGTATTCTTATCGGGGTCTATGAATATTCAATATCGTAAACGGCAGAACTGCTTCGGCTATTGTGCTACCACGATCATTTTCTTGGCCATGGAGGCCGTCTG (double strand) [porV promoter probe]”: the binding entry in series [1] was “binds”.
Regarding “GCAAAGAGGATTTTTTCTTCAACGAAGAAGAGTACTGATAATGTAATCTCCTTAAGCGAATATGCCCCGGATGTGCAATAATAGCACTCGGGGCTTCGTTTTACCACCGTGGCATCAGTC (double strand) [porP promoter probe]”, the binding result in series [1] is given as “binds”.
Consider “GGCTATACGCAAAGCAGTCAAGTCCATTCTCTCCGAGGATTCGTCCTTAGCTGTCGAAGATATTATCAAGCGAGCATTACGAATGTTATAACCTTTTCTC (double strand) [sov 5'-adjacent region probe]”, for which the binding result in series [1] was “no binding”.
The same measure, in the same setting: to “TTAGTGACTGAAATGCGATTGCCCTGTTACAAACGGACTTGATACAACATTTTCCCTACTTTTGCGTTAGTTTCCTATAGTAATAAACAACACTATGGTG (double strand) [ruvA promoter probe]” belongs “binds”.

B1: recombinant SigP (rSigP) (natural protein)
chain: T1 sequence
notes: source: E. coli BL21(DE3), purified (Ni-NTA agarose)
On to B1, for which, in series [2], the off-rate constant (koff) is 0.000529 s⁻¹. Moreover, the equilibrium dissociation constant (Kd) in series [3] was found to be 78.3 nM.
